Experimental data published in paper PMC3596305, “Escherichia coli NemA Is an Efficient Chromate Reductase That Can Be Biologically Immobilized to Provide a Cell Free System for Remediation of Hexavalent Chromium” (PLoS ONE, 2013).

These substances were tested on [O]=[Cr](=[O])([OH])[OH] (assay: purified protein). Settings: 1 mM NADH, 50 mM Tris-Cl pH 7.0, 22°C.

Substance	Km [µM]	kcat [s⁻¹]	kcat/Km [M⁻¹ s⁻¹]
ChrR_St (Salmonella enterica subsp. enterica serovar Typhi)	37 ± 2	0.031	830
NfsA_St (Salmonella enterica subsp. enterica serovar Typhi)	180	0.02	140
NfsB_St (Salmonella enterica subsp. enterica serovar Typhi)	320 ± 120	0.54	1700
